Measurements reported in US7026443.
Like-named read-outs stand apart in the source and are kept apart here.

How the values were obtained:
[1] = target: HLA-A*0301 (human); assay: competition with 125I-labelled standard peptide for purified HLA, gel filtration
[2] = target: HLA-A*1101 (human); assay: as above
[3] = target: HLA-A*0301 (human)
[4] = target: HLA-A*0301 (human); assay: competition with 125I-labelled standard peptide for purified HLA-A*0301, gel filtration; conditions: for relative binding ratio (A*0301): scale: ratio
[5] = remark: other sources report otherwise

Binder: AMFQDPQER (modifications not checked)
- binding affinity ratio (IC50 of standard peptide / IC50 of test peptide) [1, 5]: 0.017
- binding affinity ratio (IC50 of standard peptide / IC50 of test peptide) [2, 5]: 0.032

Binder: AVCDKCLK (modifications not checked) [HPV16 E6 peptide AVCDKCLK]
- binding affinity ratio (IC50 of standard peptide / IC50 of test peptide) [1]: 0.0053
- binding affinity ratio (IC50 of standard peptide / IC50 of test peptide) [2]: 0.011

Binder: CVYCKQQLLR (modifications not checked)
- binding affinity ratio (IC50 of standard peptide / IC50 of test peptide) [1]: 0.0001
- binding affinity ratio (IC50 of standard peptide / IC50 of test peptide) [2]: 0.0005

Binder: DIILECVYCK (modifications not checked)
- binding affinity ratio (IC50 of standard peptide / IC50 of test peptide) [1]: 0.0065
- binding affinity ratio (IC50 of standard peptide / IC50 of test peptide) [2]: 0.021

Binder: EVYDFAFR (modifications not checked) [HPV16 E6 peptide EVYDFAFR]
- binding affinity ratio (IC50 of standard peptide / IC50 of test peptide) [1]: 0.0004
- binding affinity ratio (IC50 of standard peptide / IC50 of test peptide) [2]: 0.0025

Binder: GTTLEQQYNK (modifications not checked)
- binding affinity ratio (IC50 of standard peptide / IC50 of test peptide) [1]: 0.0002
- binding affinity ratio (IC50 of standard peptide / IC50 of test peptide) [2]: 0.07

Binder: IILECVYCK (modifications not checked)
- binding affinity ratio (IC50 of standard peptide / IC50 of test peptide) [1]: 0.0016
- binding affinity ratio (IC50 of standard peptide / IC50 of test peptide) [2]: 0.019

Binder: LLIRCINCQK (modifications not checked)
- binding affinity ratio (IC50 of standard peptide / IC50 of test peptide) [1]: 0.021
- binding affinity ratio (IC50 of standard peptide / IC50 of test peptide) [2]: 0.18

Binder: NIRGRWTGR (modifications not checked)
- binding affinity ratio (IC50 of standard peptide / IC50 of test peptide) [1]: 0.0014
- binding affinity ratio (IC50 of standard peptide / IC50 of test peptide) [2]: 0.0005

Binder: PLCPEEKQR (modifications not checked)
- binding affinity ratio (IC50 of standard peptide / IC50 of test peptide) [1]: 0.0002
- binding affinity ratio (IC50 of standard peptide / IC50 of test peptide) [2]: 0.0005

Binder: WTGRCMSCCR (modifications not checked)
- binding affinity ratio (IC50 of standard peptide / IC50 of test peptide) [1]: 0.0003
- binding affinity ratio (IC50 of standard peptide / IC50 of test peptide) [2]: 0.0008

Binder: CVQSTHVDIR (modifications not checked)
- binding affinity ratio (IC50 of standard peptide / IC50 of test peptide) [1]: 0.0049
- binding affinity ratio (IC50 of standard peptide / IC50 of test peptide) [2]: 0.0001

Binder: GIVCPICSQK (modifications not checked)
- binding affinity ratio (IC50 of standard peptide / IC50 of test peptide) [1, 5]: 0.0003
- binding affinity ratio (IC50 of standard peptide / IC50 of test peptide) [2, 5]: 0.067

Binder: CIDFYSRIR (modifications not checked) [HPV18 E6 peptide … (position 68, 9 amino acids)]
- relative binding ratio (IC50 of standard peptide / IC50 of test peptide) (ratio to standard peptide) [3]: 0.0001
- relative binding ratio (IC50 of standard peptide / IC50 of test peptide) [1]: 0.0001
- relative binding ratio (IC50 of standard peptide / IC50 of test peptide) [2]: 0.0001

Binder: DIEITCVYCK (modifications not checked) [HPV18 E6 peptide … (position 27, 10 amino acids)]
- relative binding ratio (IC50 of standard peptide / IC50 of test peptide) (ratio to standard peptide) [3]: 0.0089
- relative binding ratio (IC50 of standard peptide / IC50 of test peptide) [1]: 0.0089
- relative binding ratio (IC50 of standard peptide / IC50 of test peptide) [2]: 0.0021

Binder: KLRHLNEKRR (modifications not checked) [HPV18 E6 peptide … (position 117, 10 amino acids)]
- relative binding ratio (IC50 of standard peptide / IC50 of test peptide) [2]: 0.0001

Binder: RARQERLQR (modifications not checked) [HPV18 E6 peptide … (position 144, 9 amino acids)]
- relative binding ratio (IC50 of standard peptide / IC50 of test peptide) [2]: 0.0002

Binder: CMCCKCEARIK (modifications not checked) [HPV18 E7 peptide … (position 63, 11 amino acids)]
- relative binding ratio (IC50 of standard peptide / IC50 of test peptide) [1]: 0.0014
- relative binding ratio (IC50 of standard peptide / IC50 of test peptide) [2]: 0.0002

Binder: TMLCMCCK (modifications not checked) [HPV18 E7 peptide TMLCMCCK (position 60, 8 amino acids)]
- relative binding ratio (IC50 of standard peptide / IC50 of test peptide) [1]: 0.024
- relative binding ratio (IC50 of standard peptide / IC50 of test peptide) [2]: 0.024

Binder: MLIQPPKLR (modifications not checked) [… (HPV31 E1, position 285, 9 amino acids)]
- binding affinity ratio (IC50 of standard peptide / IC50 of test peptide) (ratio relative to standard peptide) [1]: 0.0005
- binding affinity ratio (IC50 of standard peptide / IC50 of test peptide) (ratio relative to standard peptide) [2]: 0.0014

Binder: WLQPLADAK (modifications not checked) [… (HPV31 E1, position 489, 9 amino acids)]
- binding affinity ratio (IC50 of standard peptide / IC50 of test peptide) (ratio relative to standard peptide) [1]: 0.0005
- binding affinity ratio (IC50 of standard peptide / IC50 of test peptide) (ratio relative to standard peptide) [2]: 0.0002

Binder: PLCPEEKQR (modifications not checked) [HPV31 E6 peptide … (position 109, 9 amino acids; Seq. Id. No. 10308)]
- relative binding ratio (IC50 of standard peptide / IC50 of test peptide) [1]: 0.0002
- relative binding ratio (IC50 of standard peptide / IC50 of test peptide) [2]: 0.0005

Binder: GLSFTDLVR (modifications not checked) [HPV45 E1 209 …]
- relative binding ratio (IC50 of standard peptide / IC50 of test peptide) (ratio to standard peptide) [1]: 0.0009
- relative binding ratio (IC50 of standard peptide / IC50 of test peptide) (ratio to standard peptide) [2]: 0.0025

Binder: GVLILALLR (modifications not checked) [HPV45 E1 265 …]
- relative binding ratio (IC50 of standard peptide / IC50 of test peptide) (ratio to standard peptide) [1]: 0.0058
- relative binding ratio (IC50 of standard peptide / IC50 of test peptide) (ratio to standard peptide) [2]: 0.14

Binder: LILALLRYK (modifications not checked) [HPV45 E1 267 …]
- relative binding ratio (IC50 of standard peptide / IC50 of test peptide) (ratio to standard peptide) [1]: 0.27
- relative binding ratio (IC50 of standard peptide / IC50 of test peptide) (ratio to standard peptide) [2]: 0.18

Binder: LVRNFKSDK (modifications not checked) [HPV45 E1 215 …]
- relative binding ratio (IC50 of standard peptide / IC50 of test peptide) (ratio to standard peptide) [1]: 0.0005
- relative binding ratio (IC50 of standard peptide / IC50 of test peptide) (ratio to standard peptide) [2]: 0.0002

Binder: NSNAAAFLK (modifications not checked) [HPV45 E1 379 …]
- relative binding ratio (IC50 of standard peptide / IC50 of test peptide) (ratio to standard peptide) [1]: 0.0057
- relative binding ratio (IC50 of standard peptide / IC50 of test peptide) (ratio to standard peptide) [2]: 0.37

Binder: CMSCCRSSR (modifications not checked) [HPV16 E6 position 143 peptide …]
- binding affinity ratio (IC50 of the standard peptide / IC50 of the test peptide) [4]: 0.0033

Binder: HLDKKQRFH (modifications not checked) [… (HPV16 E6, position 125)]
- relative binding ratio (IC50 of standard peptide / IC50 of test peptide) (ratio to standard peptide) [4, 5]: 0.0009

Binder: IVYRDGNPY (modifications not checked) [… (HPV16 E6, position 59)]
- relative binding ratio (IC50 of standard peptide / IC50 of test peptide) (ratio to standard peptide) [4, 5]: 0.15

Binder: LCPEEKQRH (modifications not checked) [… (HPV16 E6, position 117)]
- relative binding ratio (IC50 of standard peptide / IC50 of test peptide) (ratio to standard peptide) [4]: 0.0003

Binder: NIRGRWTGR (modifications not checked) [… (HPV16 E6, position 134)]
- relative binding ratio (IC50 of standard peptide / IC50 of test peptide) (ratio to standard peptide) [4]: 0.0014

Binder: PLCPEEKQR (modifications not checked) [… (HPV16 E6, position 116)]
- relative binding ratio (IC50 of standard peptide / IC50 of test peptide) (ratio to standard peptide) [4]: 0.0002

Binder: SCCRSSRTR (modifications not checked) [… (HPV16 E6, position 145)]
- relative binding ratio (IC50 of standard peptide / IC50 of test peptide) (ratio to standard peptide) [4]: 0.0003

Binder: TGRCMSCCR (modifications not checked) [… (HPV16 E6, position 140)]
- relative binding ratio (IC50 of standard peptide / IC50 of test peptide) (ratio to standard peptide) [4]: 0.0003

Binder: VCDKCLKFY (modifications not checked) [… (HPV16 E6, position 69)]
- relative binding ratio (IC50 of standard peptide / IC50 of test peptide) (ratio to standard peptide) [4]: 0.0002

Binder: WTGRCMSCCR (modifications not checked) [… (HPV16 E6, position 139)]
- relative binding ratio (IC50 of standard peptide / IC50 of test peptide) (ratio to standard peptide) [4]: 0.0003

Binder: GDTPEWIQR (modifications not checked) [HPV18 E1 341 …]
- binding affinity ratio (IC50 of standard peptide / IC50 of test peptide) [4]: 0.0008

Binder: GVLILALLR (modifications not checked) [HPV18 E1 279 …]
- binding affinity ratio (IC50 of standard peptide / IC50 of test peptide) [4]: 0.0058

Binder: ISLNSGQKK (modifications not checked) [HPV18 E1 116 …]
- binding affinity ratio (IC50 of standard peptide / IC50 of test peptide) [4]: 0.0003

Binder: KLRAGQNHR (modifications not checked) [HPV18 E1 peptide … (position 647, 9 amino acids)]
- relative binding ratio (A*0301) [4]: 0.3

Binder: KSFLKGTPK (modifications not checked) [HPV18 E1 peptide … (position 468, 9 amino acids)]
- relative binding ratio (A*0301) [4]: 0.0003

Binder: LILALLRYK (modifications not checked) [HPV18 E1 peptide … (position 281, 9 amino acids)]
- relative binding ratio (A*0301) [4]: 0.27

Binder: LTTNIHPAK (modifications not checked) [… (HPV18 E1, position 571, 9 amino acids)]
- binding affinity ratio (IC50 of standard peptide / IC50 of test peptide) [4]: 0.091

Binder: NIHPAKDNR (modifications not checked) [… (HPV18 E1, position 574, 9 amino acids)]
- binding affinity ratio (IC50 of standard peptide / IC50 of test peptide) [4]: 0.0005

Binder: NSGQKKAKR (modifications not checked) [… (HPV18 E1, position 119, 9 amino acids)]
- binding affinity ratio (IC50 of standard peptide / IC50 of test peptide) [4]: 0.0005

Binder: AGHYRGQCH (modifications not checked) [HPV18 E6 peptide … (position 131, 9 amino acids)]
- relative binding ratio (IC50 of standard peptide / IC50 of test peptide) (ratio to standard peptide) [4]: 0.0005

Binder: DSIPHAACH (modifications not checked) [HPV18 E6 peptide … (position 58, 9 amino acids)]
- relative binding ratio (IC50 of standard peptide / IC50 of test peptide) (ratio to standard peptide) [4]: 0.0005

Binder: ELRHYSDSVY (modifications not checked) [HPV18 E6 peptide … (position 77, 10 amino acids)]
- relative binding ratio (IC50 of standard peptide / IC50 of test peptide) (ratio to standard peptide) [4]: 0.0002

Binder: RFEDPTRRPY (modifications not checked) [HPV18 E6 peptide … (position 3, 10 amino acids)]
- relative binding ratio (IC50 of standard peptide / IC50 of test peptide) [4]: 0.0002

Binder: EGTGCNGWF (modifications not checked) [HPV31 E1 peptide … (position 10, 9 amino acids)]
- binding affinity ratio (IC50 of standard peptide / IC50 of test peptide) (ratio relative to standard peptide) [4]: 0.0008

Binder: EGTGCNGWFY (modifications not checked) [HPV31 E1 peptide … (position 10, 10 amino acids)]
- binding affinity ratio (IC50 of standard peptide / IC50 of test peptide) (ratio relative to standard peptide) [4]: 0.0005
